This is an account of results in PMC11061317 (Cell Research, 2024).

Ends that are not written are not given here.

For assay [1], the target named is T1, bacterially purified GST-tagged Rheb (UniProt Q15382 1-184).
T1 construct: Rheb, small G protein; The real-time BODIPY assays written under functional used His-tagged Rheb from E. coli instead of the GST-tagged protein; also called GST-Rheb; recombinant GST-tagged WT Rheb; source: E. coli BL21 (DE3), purified (Glutathione Sepharose 4B); not shown: GST, N-terminal, kept
Briefly: pull-down; recombinant Rheb (1 ug) and biotinylated C-tail peptide at a 1:5 molar ratio in 300 uL NETN buffer (40 mM Tris-HCl, 100 mM NaCl, 0.5% NP-40, 1 mM EDTA, 10% glycerol) with 15 uL streptavidin beads, 2 h at 4 °C; SDS-PAGE and immunoblot. Conditions: both partners purified. (In general: Immunoblotting shows a protein as a band on a membrane.)

Assay [2] has as its target T2, bacterially purified Rheb-G63V (UniProt Q15382 1-184, G63V).
T2 construct: source: E. coli BL21 (DE3), purified
The assay is described as above. To be noted: both partners purified.

T1 sequence (Q15382 whole entry): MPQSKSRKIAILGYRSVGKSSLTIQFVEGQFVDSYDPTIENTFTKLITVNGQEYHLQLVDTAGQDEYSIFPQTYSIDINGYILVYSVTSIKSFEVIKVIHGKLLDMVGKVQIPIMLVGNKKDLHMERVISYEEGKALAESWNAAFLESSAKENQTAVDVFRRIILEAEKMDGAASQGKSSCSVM
T2 sequence (Q15382 whole entry G63V): as the sequence (Q15382 whole entry) above, with G63V counted along it

B1: biotinylated synthetic peptide of the ATP6AP1 C-tail (12) (peptide)
peptide: HKGPTISLTQIV
modifications: also: biotinylated, position not given here
notes: the last 12 residues of ATP6AP1; also called C12; synthetic C12 peptide; source: synthetic peptide (Genscript ProBio)
On to B1, for which the binding result in assay [1] is “binds”.

B2: biotinylated synthetic peptide of the ATP6AP1 C-tail (30) (peptide)
peptide: TYGLHMILSLKTMDRFDDHKGPTISLTQIV
modifications: also: biotinylated, position not given here
notes: ATP6AP1 C-terminal 30 amino acids (C-tail), aa 441-470; also called synthetic C-tail peptide; WT C-tail peptide; source: synthetic peptide (Genscript ProBio)
Take B2: the binding result in assay [1] and in assay [2] was “binds” throughout.
